Here are results for ten molecules from US20150274826A1 (ARCH ONCOLOGY, published 2015).

Holding throughout (assay): flow cytometry on RBCs, CHO supernatant 10 ng/ml
On the technique in general: A flow cytometer gives signals particle by particle.

One assay has as its target T1, human CD47 (human, UniProt Q08722 19-323).
T1 construct: whole, on cells; also called CD47 on human RBCs; CD47 on OV10 cells
As to the method:
(§1) RBCs are incubated for 60 minutes on ice with tissue culture supernatants containing the secreted humanized antibodies at a concentration of 10 ng/ml in a solution of phosphate buffered saline, pH 7.2, 2.5 mM EDTA (PBS+E), or with various concentrations of purified antibodies. Cells are then washed with cold PBS+E, and incubated for an additional hour on ice with FITC labeled donkey anti-human antibody (Jackson Immuno Research Labs, West Grove, Pa.; Catalogue #709-096-149) in PBS+E. Cells are then washed with PBS+E, and antibody binding is analyzed using a BD FACSAria Cell Sorter (Becton Dickinson) or a C6 Accuri Flow Cytometer (Becton Dickinson). Antibody binding is quantitated by comparison of mean fluorescence values relative to that of chimeric antibody >VxP037-01LC (SEQ ID NO:7))/>VxPO37-01HC (SEQ ID NO:57). The mean fluorescence value for each antibody is divided by the mean fluorescence value for the chimeric antibody.

In a further assay the target is T2, mouse CD47 (mouse, UniProt Q61735 19-303).
T2 construct: whole, on cells; also called CD47 on mouse RBCs; CD47 on 4T1 cells
T2 sequence (looked up): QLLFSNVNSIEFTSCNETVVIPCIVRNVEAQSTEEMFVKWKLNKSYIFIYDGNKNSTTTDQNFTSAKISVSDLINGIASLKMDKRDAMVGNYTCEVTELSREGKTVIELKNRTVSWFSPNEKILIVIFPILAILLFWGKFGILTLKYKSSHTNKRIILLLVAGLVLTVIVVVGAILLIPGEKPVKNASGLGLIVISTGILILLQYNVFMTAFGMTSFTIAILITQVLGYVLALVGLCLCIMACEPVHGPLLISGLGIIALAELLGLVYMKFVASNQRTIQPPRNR
The procedure: as §1

A further assay addresses T3, rat CD47 (rat, UniProt P97829 19-303).
T3 construct: whole, on cells; also called CD47 on rat RBCs
T3 sequence (looked up): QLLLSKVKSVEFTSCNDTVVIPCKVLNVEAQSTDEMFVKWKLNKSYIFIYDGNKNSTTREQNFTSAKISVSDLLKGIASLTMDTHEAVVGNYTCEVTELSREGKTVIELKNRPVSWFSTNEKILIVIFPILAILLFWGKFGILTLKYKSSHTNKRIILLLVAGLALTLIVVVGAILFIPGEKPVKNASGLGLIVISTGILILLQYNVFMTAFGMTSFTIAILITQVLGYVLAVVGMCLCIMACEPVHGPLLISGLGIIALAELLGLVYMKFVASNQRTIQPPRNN
The procedure:
as §1

Another assay has as its target T4, pig CD47 (pig, UniProt Q9GKE8 19-303).
T4 construct: whole, on cells; also called CD47 on porcine RBCs
T4 sequence (looked up): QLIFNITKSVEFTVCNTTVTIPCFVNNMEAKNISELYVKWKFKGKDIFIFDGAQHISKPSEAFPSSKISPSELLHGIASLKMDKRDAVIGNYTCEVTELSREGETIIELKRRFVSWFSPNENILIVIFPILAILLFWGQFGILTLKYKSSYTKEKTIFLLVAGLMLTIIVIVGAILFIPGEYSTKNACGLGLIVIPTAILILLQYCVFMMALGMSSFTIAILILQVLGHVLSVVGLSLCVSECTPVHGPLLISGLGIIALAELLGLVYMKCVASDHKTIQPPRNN
As to the method:
as §1

The next assay deals with T5, dog CD47 (dog, UniProt A0A8I3PM61 19-310).
T5 construct: also called CD47 on dog RBCs
T5 sequence: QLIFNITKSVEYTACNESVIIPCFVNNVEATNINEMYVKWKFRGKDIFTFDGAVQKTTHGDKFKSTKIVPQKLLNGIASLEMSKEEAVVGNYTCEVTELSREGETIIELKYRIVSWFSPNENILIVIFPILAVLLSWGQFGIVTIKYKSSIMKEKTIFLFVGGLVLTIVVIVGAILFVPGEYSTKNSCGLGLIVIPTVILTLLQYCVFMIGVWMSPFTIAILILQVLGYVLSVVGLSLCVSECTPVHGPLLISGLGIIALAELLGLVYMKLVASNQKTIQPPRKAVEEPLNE
The procedure: as §1

T1 sequence (Q08722 19-323): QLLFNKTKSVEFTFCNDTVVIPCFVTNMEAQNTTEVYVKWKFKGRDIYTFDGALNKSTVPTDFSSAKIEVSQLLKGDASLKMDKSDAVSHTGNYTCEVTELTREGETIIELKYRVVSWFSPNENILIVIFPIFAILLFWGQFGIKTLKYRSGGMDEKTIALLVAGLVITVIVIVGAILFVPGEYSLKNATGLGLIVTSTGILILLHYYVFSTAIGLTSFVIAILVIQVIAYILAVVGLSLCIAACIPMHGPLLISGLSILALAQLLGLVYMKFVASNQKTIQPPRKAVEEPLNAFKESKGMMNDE

B1: chimeric antibody VxP037-01LC-Pro/VxP037-01HC-Pro (antibody, human IgG1, kappa, V domains shown)
VH: EVQLQQFGAELVKPGASMKLSCKASGYTFTNYYVFWVKQRPGQGLEWIGDINPVNGDTNFNEKFKNKATLTVDKSSTTTYLQLSSLTSEDSAVYYCTRGGYTMDYWGQGTLVTVSS
VL: DVVMTQTPLSLSVSLGDQASISCRSSQSLVHSNGNTYLHWYLQKPGQSPKLLIYKVSYRFSGVPDRFSGSGSGTDFTLKISRVEAEDLGVYFCSQNTHVPRTFGQGTKVEIKR
notes: also called Chimera; VxP037-01LC/VxP037-01HC
In the case of B1, the “mean fluorescence relative to chimeric antibody” value with human CD47, with mouse CD47, with rat CD47, in the assay with pig CD47 and with dog CD47 was 1 ratio throughout.

B2: Clone 14 (pVxK7b-037-hum14-LC / pVxK7b-037-hum14-HC) (antibody, human IgG1, kappa)
heavy: not shown
light: DVVMTQSPLSLPVTLGQPASISCRSSQSLVHSNGNTYLHWYQQKPGKAPKLLIYKVSYRFSGVPDRFSGSGSGTDFTLKISRVEAEDVGVYYCSQNTHVPRTFGQGTKVEIKRTVAAPSVFIFPPSDEQLKSGTASVVCLLNNFYPREAKVQWKVDNALQSGNSQESVTEQDSKDSTYSLSSTLTLSKADYEKHKVYACEVTHQGLSSPVTKSFNRGEC
Take B2: the “mean fluorescence relative to chimeric antibody” value stood at 1.1 ratio with human CD47; 1.5 ratio with mouse CD47; 3.2 ratio with rat CD47; 1.4 ratio with pig CD47; 1.3 ratio with dog CD47.

B3: Clone 19 (pVxK7b-037-hum19-LC / pVxK7b-037-hum19-HC) (antibody, human IgG1, kappa)
heavy: not shown
light: DVVMTQSPLSLPVTLGQPASISCRSSQSLVHSNGNTYLHWYQQKPGKAPKLLIYKVSYRFSGVPDRFSGSGSGTDFTLKISRVEAEDVGVYYCSQNTHVPRTFGQGTKVEIKRTVAAPSVFIFPPSDEQLKSGTASVVCLLNNFYPREAKVQWKVDNALQSGNSQESVTEQDSKDSTYSLSSTLTLSKADYEKHKVYACEVTHQGLSSPVTKSFNRGEC
As for B3, the “mean fluorescence relative to chimeric antibody” value with human CD47 is 0.7 ratio; in the assay with mouse CD47, 1 ratio; in the assay with rat CD47, 2.6 ratio; with pig CD47, 1.3 ratio; in the assay with dog CD47 it was 1.2 ratio.

B4: Clone 20 (pVxK7b-037-hum20-LC / pVxK7b-037-hum20-HC) (antibody, human IgG1, kappa)
heavy: not shown
light: DIVMTQTPLSLPVTPGEPASISCRSSQSLVHSNGNTYLHWYLQKPGQSPQLLIYKVSYRFSGVPDRFSGSGSGTDFTLKISRVEAEDVGVYYCSQNTHVPRTFGQGTKVEIKRTVAAPSVFIFPPSDEQLKSGTASVVCLLNNFYPREAKVQWKVDNALQSGNSQESVTEQDSKDSTYSLSSTLTLSKADYEKHKVYACEVTHQGLSSPVTKSFNRGEC
Consider B4, for which the “mean fluorescence relative to chimeric antibody” value with human CD47 worked out at 1.3 ratio; with mouse CD47, 1.5 ratio; with rat CD47 it was 1.9 ratio; with pig CD47, 1.7 ratio; with dog CD47, 1.1 ratio.

B5: Clone 3 (pVxK7b-037-hum03-LC / pVxK7b-037-hum03-HC) (antibody, human IgG1, kappa)
heavy: not shown
light: DVVMTQSPLSLPVTLGQPASISCRSSQSLVHSNGNTYLHWYQQKPGKAPKLLIYKVSYRFSGVPDRFSGSGSGTDFTLKISRVEAEDVGVYYCSQNTHVPRTFGQGTKVEIKRTVAAPSVFIFPPSDEQLKSGTASVVCLLNNFYPREAKVQWKVDNALQSGNSQESVTEQDSKDSTYSLSSTLTLSKADYEKHKVYACEVTHQGLSSPVTKSFNRGEC
B5: the “mean fluorescence relative to chimeric antibody” value in the assay with human CD47 is 0.7 ratio; with mouse CD47 it was 0.9 ratio; with rat CD47, 1.7 ratio; with pig CD47, 0.9 ratio; with dog CD47, 0.9 ratio.

B6: Clone 2 (pVxK7b-037-hum02-LC / pVxK7b-037-hum02-HC) (antibody, human IgG1, kappa, V domains shown)
VH: QVQLQESGPGLVKPSQTLSLTCTVSGYTFTNYYVFWVRQARGQRLEWIGDINPVNGDTNFNEKFKNRVTISADKSISTAYLQWSSLKASDTAMYYCARGGYTMDYWGQGTLVTVSS
VL: DVVMTQSPLSLPVTLGQPASISCRSSQSLVHSNGNTYLHWYQQKPGQAPRLLIYKVSYRFSGVPSRFSGSGSGTEFTLTISSLQPDDFATYYCSQNTHVPRTFGQGTKVEIKR
Take B6: the “mean fluorescence relative to chimeric antibody” value with human CD47 is 1 ratio; in the assay with mouse CD47, 1.2 ratio; in the assay with rat CD47, 2.6 ratio; with pig CD47, 1.2 ratio; with dog CD47, 1 ratio.

B7: Clone 15 (pVxK7b-037-hum15-LC / pVxK7b-037-hum15-HC) (antibody, human IgG1, kappa, V domains shown)
VH: QVQLQESGPGLVKPSQTLSLTCTVSGYTFTNYYVFWVRQARGQRLEWIGDINPVNGDTNFNEKFKNRLTISKDTSKNQVVLTMTNMDPVDTATYYCARGGYTMDYWGQGTLVTVSS
VL: AIQLTQSPSSLSASVGDRVTITCRSSQSLVHSNGNTYLHWYQQKPGQAPRLLIYKVSYRFSGVPSRFSGSGSGTEFTLTISSLQPDDFATYYCSQNTHVPRTFGQGTKVEIKR
On to B7, for which the “mean fluorescence relative to chimeric antibody” value was 1 ratio with human CD47; 1.3 ratio with mouse CD47; 2.4 ratio with rat CD47; 1.2 ratio with pig CD47; 1.1 ratio with dog CD47.

B8: Clone 22 (pVxK7b-037-hum22-LC / pVxK7b-037-hum22-HC) (antibody, human IgG1, kappa, V domains shown)
VH: QVQLQESGPGLVKPSQTLSLTCTVSGYTFTNYYVFWVRQARGQRLEWIGDINPVNGDTNFNEKFKNRLTISKDTSKNQVVLTMTNMDPVDTATYYCARGGYTMDYWGQGTLVTVSS
VL: EIVLTQSPATLSVSPGERATLSCRSSQSLVHSNGNTYLHWYQQKPGQAPRLLIYKVSYRFSGVPSRFSGSGSGTDFTFTISSLEAEDAATYYCSQNTHVPRTFGQGTKVEIKR
Consider B8, for which the “mean fluorescence relative to chimeric antibody” value was determined as 1.1 ratio with human CD47; 1.2 ratio with mouse CD47; 2.8 ratio with rat CD47; 1.4 ratio in the assay with pig CD47; 1 ratio with dog CD47.

B9: Clone 21 (pVxK7b-037-hum21-LC / pVxK7b-037-hum21-HC) (antibody, human IgG1, kappa, V domains shown)
VH: QVQLQESGPGLVKPSQTLSLTCTVSGYTFTNYYVFWVRQARGQRLEWIGDINPVNGDTNFNEKFKNRLTISKDTSKNQVVLTMTNMDPVDTATYYCARGGYTMDYWGQGTLVTVSS
VL: AIQLTQSPSSLSASVGDRVTITCRSSQSLVHSNGNTYLHWYQQKPGQAPRLLIYKVSYRFSGVPDRFSGSGSGTDFTLKISRVEAEDVGVYYCSQNTHVPRTFGQGTKVEIKR
On to B9, for which the “mean fluorescence relative to chimeric antibody” value with human CD47 was 1.2 ratio; with mouse CD47, 1.2 ratio; with rat CD47, 2.8 ratio; with pig CD47, 1.4 ratio; in the assay with dog CD47, 1.1 ratio.

B10: Clone 6 (pVxK7b-037-hum06-LC / pVxK7b-037-hum06-HC) (antibody, human IgG1, kappa, V domains shown)
VH: QVQLQESGPGLVKPSQTLSLTCTVSGYTFTNYYVFWVRQARGQRLEWIGDINPVNGDTNFNEKFKNRLTISKDTSKNQVVLTMTNMDPVDTATYYCARGGYTMDYWGQGTLVTVSS
VL: DIQMTQSPSSLSASVGDRVTITCRSSQSLVHSNGNTYLHWYLQKPGQSPQLLIYKVSYRFSGIPARFSGSGSGTEFTLTISSLQSEDFAVYYCSQNTHVPRTFGQGTKVEIKR
For the molecule B10, the “mean fluorescence relative to chimeric antibody” value in the assay with human CD47 is 0.9 ratio; with mouse CD47 it was 1.2 ratio; with rat CD47, 2.1 ratio; with pig CD47, 1.1 ratio; with dog CD47 it was 1.1 ratio.
